Data on 1 substance can be found in PMC2819980.

Data set [1] has as its system NCCCP(=O)(O)OP(=O)(O)OC[C@H]1O[C@@H](n2ccc(N)nc2=O)[C@H](O)[C@@H]1O. As to the kind of experiment: steady-state kinetics. Format: biochemical, Streptomyces rubellomurinus.
Data set [2] concerns Nc1ccn([C@@H]2O[C@H](COP(=O)(O)OP(=O)(O)CCCNO)[C@@H](O)[C@H]2O)c(=O)n1. The data set is described as follows: steady-state kinetics. Format: biochemical, Streptomyces rubellomurinus.

On to FrbF (Streptomyces rubellomurinus), for which, in data set [1], the Km (as a rule, the concentration of substrate that gives half-maximal velocity) worked out at 35.2 ± 3.2 µM; the kcat (usually the maximal rate divided by the concentration of active sites) is 0.0577 ± 0.00267 s⁻¹; the kcat/Km (usually the turnover number divided by the Michaelis constant) worked out at 1630 M⁻¹ s⁻¹. Moreover, in data set [2], the Michaelis-Menten constant (Km) was 52.3 ± 3.0 µM, the kcat was determined as 0.034 ± 0.00717 s⁻¹ and the kcat/Km stood at 650 M⁻¹ s⁻¹.
